Test results: IntAct's records for PubMed 31515488

B1: "Peptide-N(4)-(N-acetyl-beta-glucosaminyl)asparagine amidase" (Homo sapiens), Q96IV0 (parent)
chain: MAAAALGSSSGSASPAVAELCQNTPETFLEASKLLLTYADNILRNPNDEKYRSIRIGNTAFSTRLLPVRGAVECLFEMGFEEGETHLIFPKKASVEQLQKIRDLIAIERSSRLDGSNKSHKVKSSQQPAASTQLPTTPSSNPSGLNQHTRNRQGQSSDPPSASTVAADSAILEVLQSNIQHVLVYENPALQEKALACIPVQELKRKSQEKLSRARKLDKGINISDEDFLLLELLHWFKEEFFHWVNNVLCSKCGGQTRSRDRSLLPSDDELKWGAKEVEDHYCDACQFSNRFPRYNNPEKLLETRCGRCGEWANCFTLCCRAVGFEARYVWDYTDHVWTEVYSPSQQRWLHCDACEDVCDKPLLYEIGWGKKLSYVIAFSKDEVVDVTWRYSCKHEEVIARRTKVKEALLRDTINGLNKQRQLFLSENRRKELLQRIIVELVEFISPKTPKPGELGGRISGSVAWRVARGEMGLQRKETLFIPCENEKISKQLHLCYNIVKDRYVRVSNNNQTISGWENGVWKMESIFRKVETDWHMVYLARKEGSSFAYISWKFECGSVGLKVDSISIRTSSQTFQTGTVEWKLRSDTAQVELTGDNSLHSYADFSGATEVILEAELSRGDGDVAWQHTQLFRQSLNDHEENCLEIIIKFSDL
B2: Kappa-casein (Homo sapiens), P07498 (parent)
chain: MKSFLLVVNALALTLPFLAVEVQNQKQPACHENDERPFYQKTAPYVPMYYVPNSYPYYGTNLYQRRPAIAINNPYVPRTYYANPAVVRPHAQIPQRQYLPNSHPPTVVRRPNLHPSFIAIPPKKIQDKIIIPTINTIATVEPTPAPATEPTVDSVVTPEAFSESIITSTPETTTVAVTPPTA
B3: Spermatogenesis-associated protein 2 (Homo sapiens), Q9UM82 (parent)
chain: MGKPSSMDTKFKDDLFRKYVQFHESKVDTTTSRQRPGSDECLRVAASTLLSLHKVDPFYRFRLIQFYEVVESSLRSLSSSSLRALHGAFSMLETVGINLFLYPWKKEFRSIKTYTGPFVYYVKSTLLEEDIRAILSCMGYTPELGTAYKLRELVETLQVKMVSFELFLAKVECEQMLEIHSQVKDKGYSELDIVSERKSSAEDVRGCSDALRRRAEGREHLTASMSRVALQKSASERAAKDYYKPRVTKPSRSVDAYDSYWESRKPPLKASLSLRKEPVATDVGDDLKDEIIRPSPSLLTMASSPHGSPDVLPPASPSNGPALLRGTYFSTQDDVDLYTDSEPRATYRRQDALRPDVWLLRNDAHSLYHKRSPPAKESALSKCQSCGLSCSSSLCQRCDSLLTCPPASKPSAFPSKASTHDSLAHGASLREKYPGQTQGLDRLPHLHSKSKPSTTPTSRCGFCNRPGATNTCTQCSKVSCDACLSAYHYDPCYKKSELHKFMPNNQLNYKSTQLSHLVYR
partner: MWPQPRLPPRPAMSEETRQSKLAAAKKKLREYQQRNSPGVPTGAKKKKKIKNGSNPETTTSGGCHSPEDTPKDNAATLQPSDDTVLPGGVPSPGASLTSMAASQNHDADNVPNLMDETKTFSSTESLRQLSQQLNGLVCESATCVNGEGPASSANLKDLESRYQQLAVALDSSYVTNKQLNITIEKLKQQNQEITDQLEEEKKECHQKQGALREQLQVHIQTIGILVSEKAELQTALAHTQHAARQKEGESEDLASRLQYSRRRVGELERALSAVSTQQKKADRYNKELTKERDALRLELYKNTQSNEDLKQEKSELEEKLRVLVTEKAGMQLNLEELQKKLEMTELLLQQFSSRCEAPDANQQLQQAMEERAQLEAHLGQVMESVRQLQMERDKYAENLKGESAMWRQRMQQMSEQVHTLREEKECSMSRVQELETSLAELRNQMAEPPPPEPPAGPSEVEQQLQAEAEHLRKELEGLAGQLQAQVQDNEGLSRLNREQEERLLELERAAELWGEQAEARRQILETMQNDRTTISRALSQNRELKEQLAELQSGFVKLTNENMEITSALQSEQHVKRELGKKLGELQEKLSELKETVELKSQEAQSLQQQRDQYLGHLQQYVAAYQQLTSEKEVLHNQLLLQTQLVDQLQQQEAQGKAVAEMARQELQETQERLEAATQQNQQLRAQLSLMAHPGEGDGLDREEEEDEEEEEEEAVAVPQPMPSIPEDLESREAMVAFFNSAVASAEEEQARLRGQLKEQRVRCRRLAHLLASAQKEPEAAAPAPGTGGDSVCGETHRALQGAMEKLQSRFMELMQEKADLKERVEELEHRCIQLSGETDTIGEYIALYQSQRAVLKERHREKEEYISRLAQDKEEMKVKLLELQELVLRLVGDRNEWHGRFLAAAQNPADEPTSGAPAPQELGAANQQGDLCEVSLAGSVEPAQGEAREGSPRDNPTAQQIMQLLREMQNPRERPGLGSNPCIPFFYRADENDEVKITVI
B4: Protein LDOC1 (Homo sapiens), O95751 (parent)
chain: MVDELVLLLHALLMRHRALSIENSQLMEQLRLLVCERASLLRQVRPPSCPVPFPETFNGESSRLPEFIVQTASYMLVNENRFCNDAMKVAFLISLLTGEAEEWVVPYIEMDSPILGDYRAFLDEMKQCFGWDDDEDDDDEEEEDDY
partner: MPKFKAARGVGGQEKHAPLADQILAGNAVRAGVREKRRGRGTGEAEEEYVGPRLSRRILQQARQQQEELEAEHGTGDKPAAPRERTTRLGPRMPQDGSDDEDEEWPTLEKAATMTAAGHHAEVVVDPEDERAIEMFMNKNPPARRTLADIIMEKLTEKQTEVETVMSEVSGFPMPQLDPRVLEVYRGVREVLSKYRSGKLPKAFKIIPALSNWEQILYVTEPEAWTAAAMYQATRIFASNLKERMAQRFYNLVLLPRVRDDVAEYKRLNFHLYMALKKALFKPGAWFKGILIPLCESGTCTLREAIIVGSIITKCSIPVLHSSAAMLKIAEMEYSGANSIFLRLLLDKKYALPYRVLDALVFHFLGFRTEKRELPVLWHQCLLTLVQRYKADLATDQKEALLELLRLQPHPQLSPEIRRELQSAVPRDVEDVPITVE
B5: Transcription factor 12 (Homo sapiens), Q99081-3 (parent)
chain: MNPQQQRMAAIGTDKELSDLLDFSAMFSPPVNSGKTRPTTLGSSQFSGSGIDERGGTTSWGTSGQPSPSYDSSRGFTDSPHYSDHLNDSRLGAHEGLSPTPFMNSNLMGKTSERGSFSLYSRDTGLPGCQSSLLRQDLGLGSPAQLSSSGKPGTAYYSFSATSSRRRPLHDSAALDPLQAKKVRKVPPGLPSSVYAPSPNSDDFNRESPSYPSPKPPTSMFASTFFMQDGTHNSSDLWSSSNGMSQPGFGGILGTSTSHMSQSSSYGNLHSHDRLSYPPHSVSPTDINTSLPPMSSFHRGSTSSSPYVAASHTPPINGSDSILGTRGNAAGSSQTGDALGKALASIYSPDHTSSSFPSNPSTPVGSPSPLTGTSQWPRPGGQAPSSPSYENSLHSLKNRVEQQLHEHLQDAMSFLKDVCEQSRMEDRLDRLDDAIHVLRNHAVGPSTSLPAGHSDIHSLLGPSHNAPIGSLNSNYGGSSLVASSRSASMVGTHREDSVSLNGNHSVLSSTVTTSSTDLNHKTQENYRGGLQSQSGTVVTTEIKTENKEKDENLHEPPSSDDMKSDDESSQKDIKVSSRGRTSSTNEDEDLNPEQKIEREKERRMANNARERLRVRDINEAFKELGRMCQLHLKSEKPQTKLLILHQAVAVILSLEQQVRERNLNPKAACLKRREEEKVSAVSAEPPTTLPGTHPGLSETTNPMGHM
partner: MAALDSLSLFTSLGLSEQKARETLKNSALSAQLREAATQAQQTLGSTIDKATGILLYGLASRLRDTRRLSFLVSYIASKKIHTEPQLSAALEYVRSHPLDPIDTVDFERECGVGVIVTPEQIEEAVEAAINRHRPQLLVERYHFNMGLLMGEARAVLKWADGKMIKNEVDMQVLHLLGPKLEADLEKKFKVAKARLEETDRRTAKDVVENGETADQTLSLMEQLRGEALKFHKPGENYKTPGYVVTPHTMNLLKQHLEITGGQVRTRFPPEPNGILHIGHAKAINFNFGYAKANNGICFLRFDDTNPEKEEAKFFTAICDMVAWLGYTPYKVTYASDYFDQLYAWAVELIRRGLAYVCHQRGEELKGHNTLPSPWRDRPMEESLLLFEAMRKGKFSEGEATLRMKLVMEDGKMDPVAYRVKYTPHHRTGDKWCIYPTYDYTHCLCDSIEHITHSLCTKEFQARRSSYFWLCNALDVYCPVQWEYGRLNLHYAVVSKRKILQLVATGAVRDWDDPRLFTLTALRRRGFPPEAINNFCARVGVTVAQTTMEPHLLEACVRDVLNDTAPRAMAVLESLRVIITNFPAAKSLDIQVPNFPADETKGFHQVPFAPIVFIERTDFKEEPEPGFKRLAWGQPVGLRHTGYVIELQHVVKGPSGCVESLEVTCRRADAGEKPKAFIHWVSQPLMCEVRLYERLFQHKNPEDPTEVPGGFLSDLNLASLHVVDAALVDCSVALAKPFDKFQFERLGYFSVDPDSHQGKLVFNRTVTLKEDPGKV

Variants of: B1
Settings: with ubql1_human UBQLN1, Q9UMX0
ubql1_human UBQLN1, Q9UMX0, sequence (Q9UMX0 whole entry): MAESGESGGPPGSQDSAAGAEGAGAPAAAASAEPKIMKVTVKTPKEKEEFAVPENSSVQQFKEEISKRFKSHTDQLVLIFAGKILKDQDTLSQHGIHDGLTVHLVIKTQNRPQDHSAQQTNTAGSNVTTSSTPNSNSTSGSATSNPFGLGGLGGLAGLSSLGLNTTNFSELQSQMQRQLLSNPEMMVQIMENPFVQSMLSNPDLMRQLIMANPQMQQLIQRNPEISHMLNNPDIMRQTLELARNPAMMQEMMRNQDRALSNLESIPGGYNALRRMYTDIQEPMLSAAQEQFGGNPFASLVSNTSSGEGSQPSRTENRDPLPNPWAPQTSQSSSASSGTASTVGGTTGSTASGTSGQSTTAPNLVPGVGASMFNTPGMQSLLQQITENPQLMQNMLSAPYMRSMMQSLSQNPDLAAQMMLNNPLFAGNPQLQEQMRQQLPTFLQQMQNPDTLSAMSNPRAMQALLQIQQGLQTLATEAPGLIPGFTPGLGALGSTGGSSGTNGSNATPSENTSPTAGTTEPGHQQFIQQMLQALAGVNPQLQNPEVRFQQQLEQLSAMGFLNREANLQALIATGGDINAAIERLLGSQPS

Row | effect of a mutation on the interaction | Variant
1 | with no effect | V184F

Variants of: B1
Settings: with gucd1_human GUCD1, Q96NT3
gucd1_human GUCD1, Q96NT3, sequence (Q96NT3 whole entry): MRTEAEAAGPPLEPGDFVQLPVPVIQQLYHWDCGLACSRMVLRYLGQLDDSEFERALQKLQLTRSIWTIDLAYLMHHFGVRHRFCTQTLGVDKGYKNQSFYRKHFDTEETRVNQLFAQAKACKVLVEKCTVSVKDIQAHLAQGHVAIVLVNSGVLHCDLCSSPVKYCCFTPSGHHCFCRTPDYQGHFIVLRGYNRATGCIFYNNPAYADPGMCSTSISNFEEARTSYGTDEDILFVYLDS

Row | effect of a mutation on the interaction | Variant
2 | with no effect | V184F

Variants of: B1
Settings: with trad1_human TRAFD1, O14545
trad1_human TRAFD1, O14545, sequence (O14545 whole entry): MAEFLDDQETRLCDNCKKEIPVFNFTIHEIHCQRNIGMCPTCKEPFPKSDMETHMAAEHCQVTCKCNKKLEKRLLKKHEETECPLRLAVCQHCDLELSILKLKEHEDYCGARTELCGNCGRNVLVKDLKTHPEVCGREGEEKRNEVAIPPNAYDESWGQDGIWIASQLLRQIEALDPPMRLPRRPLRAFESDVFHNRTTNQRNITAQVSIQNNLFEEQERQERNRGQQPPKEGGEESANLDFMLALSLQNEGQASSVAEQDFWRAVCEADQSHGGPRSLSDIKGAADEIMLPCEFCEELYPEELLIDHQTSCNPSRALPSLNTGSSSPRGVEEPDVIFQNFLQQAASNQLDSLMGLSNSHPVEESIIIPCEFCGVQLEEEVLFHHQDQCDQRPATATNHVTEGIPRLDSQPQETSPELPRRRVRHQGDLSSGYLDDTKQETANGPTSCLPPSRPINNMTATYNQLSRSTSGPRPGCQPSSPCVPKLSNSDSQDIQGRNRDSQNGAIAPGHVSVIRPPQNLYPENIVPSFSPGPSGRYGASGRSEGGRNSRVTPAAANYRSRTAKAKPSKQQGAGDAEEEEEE

Row | effect of a mutation on the interaction | Variant
3 | with no effect | V184F

Variants of: B2
Settings: with rbpms_human RBPMS

Row | effect of a mutation on the interaction | Variant
4 | with no effect | R96L

Variants of: B2
Settings: with dmrtb_human DMRTB1, Q96MA1
dmrtb_human DMRTB1, Q96MA1, sequence (Q96MA1 whole entry): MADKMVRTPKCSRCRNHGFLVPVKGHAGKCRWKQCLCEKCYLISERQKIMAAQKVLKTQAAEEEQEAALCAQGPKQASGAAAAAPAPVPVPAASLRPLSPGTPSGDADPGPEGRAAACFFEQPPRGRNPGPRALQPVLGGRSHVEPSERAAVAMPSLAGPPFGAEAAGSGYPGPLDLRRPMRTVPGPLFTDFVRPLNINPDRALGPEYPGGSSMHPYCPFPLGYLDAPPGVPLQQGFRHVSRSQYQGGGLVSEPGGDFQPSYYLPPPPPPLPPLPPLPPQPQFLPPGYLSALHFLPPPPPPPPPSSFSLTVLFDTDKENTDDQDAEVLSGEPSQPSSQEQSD

Row | effect of a mutation on the interaction | Variant
5 | with no effect | R96L
6 | with no effect | A145T

Variants of: B3
Settings: with goga2_human GOLGA2, Q08379

Row | effect of a mutation on the interaction | Variant
7 | with no effect | L443F

Variants of: B4
Settings: with byst_human BYSL

Row | effect of a mutation on the interaction | Variant
8 | disrupting interaction strength | L12H

Variants of: B5
Settings: with syq_human QARS1, P47897

Row | Variant | effect of a mutation on the interaction
9 | Y120C | with no effect
10 | R74G | with no effect

The remaining lines, values ahead:

Row | effect of a mutation on the interaction | Variant
11 | with no effect | A155T
12 | with no effect | A482V
13 | with no effect | S446F
14 | with no effect | N606H
